Source: patent US20040152634A1, “Chemokine antagonists and uses thereof” (priority 2002, published 2004)
Where two headings read alike, the source gives them in different places.

Tests used:
[1] = molecular target: T1, extracellular domain of the prolactin receptor (hPRLbp) (Homo sapiens, UniProt P16471); settings: cited from earlier work; for Kd: read-out: Kd, binding to hPRLbp
T1 construct: with the extracellular domain of the prolactin receptor (hPRLbp)
T1 sequence (P16471 25-234 limits assumed): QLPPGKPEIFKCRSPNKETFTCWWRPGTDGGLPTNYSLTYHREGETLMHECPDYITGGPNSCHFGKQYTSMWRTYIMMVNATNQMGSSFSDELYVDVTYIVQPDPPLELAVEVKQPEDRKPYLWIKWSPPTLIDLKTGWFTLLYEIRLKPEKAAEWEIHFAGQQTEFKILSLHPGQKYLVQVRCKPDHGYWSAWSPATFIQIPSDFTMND

[2] = molecular target: IL-8 (CXCL8, interleukin 8) (UniProt P10145); assay: inhibition of 125I-IL-8 binding to neutrophil membranes, in the presence of 100 uM ZnCl2
[3] = molecular target: IL-8 (CXCL8, interleukin 8) (UniProt P10145); assay: inhibition of 125I-IL-8 binding to neutrophil membranes; with 100 uM ZnCl2 against without Zn(II)
[4] = molecular target: IL-8 (CXCL8, interleukin 8) (UniProt P10145); assay: inhibition of 125I-IL-8 binding to neutrophil membranes, (II)

Chain of IL-8 (CXCL8, interleukin 8) (P10145 28-99 limits assumed): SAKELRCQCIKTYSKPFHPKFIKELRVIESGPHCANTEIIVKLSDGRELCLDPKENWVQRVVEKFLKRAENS

Row | Substance | Kd ([1]; in the absence of Zn(II)) [nM] | Kd ([1]; in the presence of Zn(II)) [nM] | increase of binding affinity with Zn(II) ([1]; presence vs absence of Zn(II)) | Ki [2] [nM] | fold better inhibition with Zn(II) than in the absence of Zn(II) [3] [fold] | Ki [4] [nM]
1 | hGH: human growth hormone, binds the extracellular domain of the prolactin receptor (hPRLbp) | 270 | 0.033 | about 8,000 fold |  |  | 
2 | synthetic N-terminal peptide CXCR1 (21-residues in length in which Met 12 was replaced by a His to create a Zn(II) binding site) |  |  |  | 1120 | 125 | 141000
